{
  "source": "paper PMC7142073",
  "about": "“Acclimation of bacterial cell state for high-throughput enzyme engineering using a DmpR-dependent transcriptional activation system” (Scientific Reports, 2020)",
  "substrate": "N[C@@H](Cc1ccc(O)cc1)C(=O)O",
  "assay": "purified protein",
  "assay_type": "biochemical, Symbiobacterium sp. SC-1",
  "conditions": "50 mM potassium phosphate, 50 µM PLP; pH 8.0; 60.0 °C",
  "data": [
    {"protein": "thermostable TPL (TTPL) (Symbiobacterium sp. SC-1) (protein, His-tagged, pSHCE plasmid, expressed in E. coli DH5alpha with pGESS; cloning primer starts … (M-Q-R-P)) MQRPWAEPYKIKAVEPIRMTTREYREQAIREAGYNTFLLRSEDVYIDLLTDSGTNAMSDRQWGALMMGDEAYAGARSFFRLEEAVREIYGFKYVVPTHQGRGAEHLISRILIKPGDYIPGNMYFTTTRTHQELQGGTFVDVIIDEAHDPQANHPFKGNVDIAKFEALIDRVGADKIPYINVALTVNMAGGQPVSMANLREVRKVCDRHGIRMWSDATRAVENAYFIKEREEGYQDKPVREILKEMMSYFDGCTMSGKKDCLVNIGGFLAMNEEWILQKAREQVVIFEGMPTYGGLAGRDMEAIAQGIYEMVDDDYIAHRIHQVRYLGEQLLEAGIPIVQPIGGHAVFLDARAFLPHIPQDQFPAQALAAALYVDSGVRAMERGIVSAGRNPQTGEHNYPKLELVRLTIPRRVYTDRHMDVVAYSVKHLWKERDTIRGLRMVYEPPTLRFFTARFEPIS", "values": [
      {"measurement": "Km", "result": "270 ± 10", "unit": "µM"},
      {"measurement": "kcat", "result": "0.15 ± 0.01", "unit": "s⁻¹"},
      {"measurement": "kcat/Km", "result": "550 ± 10", "unit": "M⁻¹ s⁻¹"}
    ]}
  ]
}
